What was measured:
[1] = biological target: T1, soluble hetero-EPOR (EPOR-CD131-Fc) (human, UniProt P19235 25-250; P32927 17-443); experiment: Octet BLI, EPOR-CD131-Fc on anti-human Fc sensor, 10 nM EPO +/- hybridoma supernatant; competitor EPO
T1 construct: extracellular domain; also called soluble EPOR-CD131-Fc; not shown: human Fc (captured by anti-human Fc)
T1 sequence (looked up) 1: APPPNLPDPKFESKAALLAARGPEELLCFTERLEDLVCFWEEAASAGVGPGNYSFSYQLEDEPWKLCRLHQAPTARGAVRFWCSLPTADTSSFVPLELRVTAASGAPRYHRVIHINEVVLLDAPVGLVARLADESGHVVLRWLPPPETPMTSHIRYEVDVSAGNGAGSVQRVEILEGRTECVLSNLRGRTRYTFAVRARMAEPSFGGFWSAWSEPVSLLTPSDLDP
T1 sequence (looked up) 2: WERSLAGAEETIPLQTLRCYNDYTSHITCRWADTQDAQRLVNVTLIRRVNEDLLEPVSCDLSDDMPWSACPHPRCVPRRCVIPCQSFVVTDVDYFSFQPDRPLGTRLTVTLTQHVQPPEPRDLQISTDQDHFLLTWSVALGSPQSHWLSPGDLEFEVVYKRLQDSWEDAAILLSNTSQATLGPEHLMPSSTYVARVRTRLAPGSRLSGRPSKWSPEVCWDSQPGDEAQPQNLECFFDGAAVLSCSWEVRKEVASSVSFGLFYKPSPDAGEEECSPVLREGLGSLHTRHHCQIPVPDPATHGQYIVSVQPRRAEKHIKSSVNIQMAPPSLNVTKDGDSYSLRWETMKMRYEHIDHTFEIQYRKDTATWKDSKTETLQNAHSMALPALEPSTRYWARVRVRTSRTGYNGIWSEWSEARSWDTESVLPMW

[2] = biological target: T2, human CD131 on 293T/CD131 cells (human, UniProt P32927 17-897); experiment: flow cytometry on 293T/CD131 cells, purified antibody, PE labeled secondary antibody
T2 construct: whole, on cells; also called hCD131
T2 sequence (looked up): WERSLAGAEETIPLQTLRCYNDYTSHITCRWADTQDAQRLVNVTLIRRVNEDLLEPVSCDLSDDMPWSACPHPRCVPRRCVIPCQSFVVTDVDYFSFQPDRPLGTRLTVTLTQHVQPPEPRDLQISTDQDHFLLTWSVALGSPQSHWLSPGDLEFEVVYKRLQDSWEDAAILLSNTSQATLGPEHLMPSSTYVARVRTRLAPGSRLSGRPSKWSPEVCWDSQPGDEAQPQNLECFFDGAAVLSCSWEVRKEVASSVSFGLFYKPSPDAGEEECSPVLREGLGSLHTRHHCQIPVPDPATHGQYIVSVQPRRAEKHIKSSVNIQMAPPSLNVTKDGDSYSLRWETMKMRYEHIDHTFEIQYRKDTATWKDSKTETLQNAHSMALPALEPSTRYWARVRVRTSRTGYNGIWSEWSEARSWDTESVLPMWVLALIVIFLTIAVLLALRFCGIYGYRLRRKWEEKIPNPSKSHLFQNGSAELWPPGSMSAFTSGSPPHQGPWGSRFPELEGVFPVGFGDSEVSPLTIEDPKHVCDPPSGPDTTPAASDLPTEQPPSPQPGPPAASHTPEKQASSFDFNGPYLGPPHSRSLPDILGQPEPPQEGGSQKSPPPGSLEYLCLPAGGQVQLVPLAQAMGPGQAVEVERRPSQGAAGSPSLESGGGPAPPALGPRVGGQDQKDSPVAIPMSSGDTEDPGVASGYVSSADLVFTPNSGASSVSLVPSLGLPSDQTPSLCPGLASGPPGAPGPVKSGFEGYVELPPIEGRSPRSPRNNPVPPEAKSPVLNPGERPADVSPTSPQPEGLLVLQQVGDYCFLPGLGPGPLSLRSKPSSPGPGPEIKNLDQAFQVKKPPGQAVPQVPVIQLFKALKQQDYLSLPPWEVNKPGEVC

B1: EPORab - M9 (antibody, V domains shown)
VH: QVQLQESGPGLVKPSQTLSLTCDISGDSVSSNSAAWNWIRQSPSRGLEWLGRTYYRSKWYNDYAVAVKSRITINPDTSKNQFSLQLNSVTPEDTAVYYCARESSGWYEDYYYYYMDVWGKGTTVTVSS
VL: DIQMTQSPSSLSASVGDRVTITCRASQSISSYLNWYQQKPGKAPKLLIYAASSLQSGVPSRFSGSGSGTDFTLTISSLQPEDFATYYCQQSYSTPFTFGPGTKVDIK
notes: hybridoma supernatant, ATX-GK mouse; also called hybridoma clone M9
With B1 the “% Inhibition” value [1] was 18.1%.

B2: EPORab - M26 (antibody, V domains shown)
VH: QVQLVQSGVEVKKPGASVKVSCKASGYAFSNNDISWVRQAPGQGLEWMAWITTSNGNTNYAPKLQGRVTMTTDTSTSTAYMELRSLKSDDTAVYYCARGGRTGYFDYWGQGTLVTVSS
VL: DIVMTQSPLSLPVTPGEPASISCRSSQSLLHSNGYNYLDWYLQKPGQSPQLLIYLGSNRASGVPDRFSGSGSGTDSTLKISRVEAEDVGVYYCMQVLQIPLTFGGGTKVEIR
notes: hybridoma supernatant, ATX-GK mouse; also called hybridoma clone M26
For B2, the “% Inhibition” value [1] was 31.3%.

B3: EPORab - M37 (antibody, V domains shown)
VH: QVQLQESGPGLVKPSGTLSLTCAVSGGSITTNNWWSWVRQSPGKGLEWIGEIYHSGNTNYNPSLKSRVTMSVDKSKNQFSLNLNSVIVADTAVYYCASALGTYYGAFDTWGQGTMVTVSA
VL: DIQMTQSPSSLSASVGDRVTITCRASQSISNYLNWYQQKPGKAPKLLIYAASSLQSGVPSRFSGSGSGTDFTLTISSLQPEDFTTYYCQQSYGTPYTFGQGAKLQIK
notes: hybridoma supernatant, ATX-GK mouse; also called hybridoma clone M37
For B3, the “% Inhibition” value [1] was -7.1%.

B4: EPORab - M43 (antibody, V domains shown)
VH: QVQLQESGPGLVKPSGTLSLTCAVSGGSISSSNWWSWVRQPPGKGLEWIGEIYHSGSINYNPSLKSRVTISVDKSKNQFSLKLTSVTAADTAVYYCASALGNYYGAFDLWGQGTMVTVSS
VL: DIVMTQSPSSLSASVGDRVTITCRASQTISSYLNWYQQKPGKAPKLLICAASSLQGGVPSRFSGSGSGTDFTLTISSLQPEDFAPYYCQQSYSTPYTFGQGTKLEIK
notes: hybridoma supernatant, ATX-GK mouse; also called hybridoma clone M43
In the case of B4, the “% Inhibition” value [1] is reported as -11.4%.

B5: EPORab - M54 (antibody, V domains shown)
VH: QLQLQESGPGLVKPSETLSLTCSVSGGSISSSGYYWGWIRQPPGKGLDWIGTIYYSGNTNYNPSLNSRVTISVDTSRNQFSLKLRSVTAADTAVYYCARGYSYGPFDYWGQGTLVTVSS
VL: EIVMTQSPATLSVSPGERATLSCRASQSVSSNLAWYQLKPGQAPRLLIYGASTRATGIPARFSGSGSGTEFTLTISSLQSEDFAVYYCHPYNNWPLTFGGGTKVEIK
notes: hybridoma supernatant, ATX-GK mouse; also called hybridoma clone M54
With B5 the “% Inhibition” value [1] was 16%.

B6: EPORab - M71 (antibody, V domains shown)
VH: QVQLVESGAEVKKPRASVKVSCKTSGYTFTRHYMHWVRQAPGQGLEWMGIINPNNNSTSYAQKFQGRITMTRDTSTSTVYMELSSLRSEDTAVYYCARFRIVGTTLYFDYWGQGTLVTVSS
VL: EIVMTQSPATLSVSPGERATLSCRASQSVSSNLAWYQLKPGQAPRLLIYGASTRATGIPARFSGSGSGTEFTLTISSLQSEDFAVYYCHPYNNWPLTFGGGTKVEIK
notes: hybridoma supernatant, ATX-GK mouse; also called hybridoma clone M71
For B6, the “% Inhibition” value [1] was 0.1%.

B7: EPORab - M24 (antibody, V domains shown)
VH: EVQLVESGGGLVKPGGSLRLSCAASGFTFTNAWMNWVRQAPGKGLEWIGRIKSKTAGETTDYAAPVKGRFTISRDDSKNTLYLQMNSLKTEDTAVYYCTTDPDYGDPYYYYYFMDVWGKGTTVTVSS
VL: DIQMTQSPSSLSASIGDRVTISCRASQSISSYLNWYQQKPGKAPKLLIYGASSLQSGVPSRFSGSGSGTDFTLTISSLQPEDFATYYCQQSYSLPLTFGGGTKVEIK
notes: hybridoma supernatant, ATX-GK mouse; also called hybridoma clone M24
B7 was tested, and the “% Inhibition” value [1] was 9.5%.

B8: EPORab - M1 (antibody, V domains shown)
VH: QVQLQESGPGLVKPSQTLSLTCTVSGGSISSGGYYWSWIRQHPGKGLEWIGNIYYSGNPYYNPSLKSRLIISVDTSKNQFSLRLNSVTAADTAVYYCATFYYGSGSYYNEDYWGQGTLVTVSS
VL: DIQMTQSPSSLSASVGDRVTITCRASQGIRIDLGWYQQKPGKAPKRLIYAASSLKSGVPSRFSGSGSGTEFTLTISSLQPEDFTTYFCLQHNSYPYTFGQGTKLEIK
notes: hybridoma supernatant, ATX-GK mouse; also called hybridoma clone M1
B8 was tested, and the “% Inhibition” value [1] was 31.2%.

B9: EPORab - M2 (antibody, V domains shown)
VH: QVQLVESGGGLVKPGGSLRLSCAASGFTFSDSYMSWIRQAPGKGLEWVSYISNSGSYMYYADSVKGRFTISRDNAKNSLYLQMNNLRAEDTAVYYCARDKLGIGDYWGQGTLVTVSS
VL: DIQMTQSPSSLSASVGDRVTITCRASQGIRNDLGWFQQKPGKAPKRLIYAASRLQSGVPSRFSGSGSGTEFTLTISSLQPEDFATYCCLQHHTYPPTFGQGTKVEIK
notes: hybridoma supernatant, ATX-GK mouse; also called hybridoma clone M2
With B9 the “% Inhibition” value [1] was 93.6%.

B10: hybridoma clone M2 (antibody, V domains shown)
VH: QVQLVESGGGLVKPGGSLRLSCAASGFTFSDSYMSWIRQAPGKGLEWVSYISNSGSYMYYADSVKGRFTISRDNAKNSLYLQMNNLRAEDTAVYYCARDKLGIGDYWGQGTLVTVSS
VL: DIQMTQSPSSLSASVGDRVTITCRASQGIRNDLGWFQQKPGKAPKRLIYAASRLQSGVPSRFSGSGSGTEFTLTISSLQPEDFATYCCLQHHTYPPTFGQGTKVEIK
notes: Hybridoma from ATX-GK mice; tested as supernatant (BLI) and purified (cell staining, Stat5 assay); also called EPORab - M2
B10: no binding [2].

B11: EPORab - M52 (antibody, V domains shown)
VH: QLQLQESGPGLAKPSETLSLTCTVSGVSISSNSYYWGWIRQPPGKGLEWIGNIYHSGRTYYNPSLRSRVTISVDTSKNQFSLKLNSVTAADTAVYYCARGYSYGAFDYWGQGTLVTVSS
VL: DIQMTQSPSSLSASVGDRVTITCRASQGIRNDLGWYQQKPGKAPKRLIYAASSLQSGIPSRFSGSGSGTEFTLTISSLQPEDFATYYCLQHNNYPWTFGQGTKVEIK
notes: hybridoma supernatant, ATX-GK mouse; also called hybridoma clone M52
B11 was tested, and the “% Inhibition” value [1] was 7.4%.

B12: EPORab - M80 (antibody, V domains shown)
VH: QVQLVESGGGLVKPGGSLRLSCAASGFTFSDSYMSWIRQAPGKGLEWVSYISNSGSYMYYADSVKGRFTISRDNAKNSLYLQMNNLRAEDTAVYYCARDKLGIGDYWGQGTLVTVSS
VL: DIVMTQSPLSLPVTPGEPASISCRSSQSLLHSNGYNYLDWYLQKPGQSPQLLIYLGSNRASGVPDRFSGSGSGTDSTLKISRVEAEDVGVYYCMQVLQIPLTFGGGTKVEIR
notes: hybridoma supernatant, ATX-GK mouse; printed VH equals that of M2; also called hybridoma clone M80
B12 was tested, and the “% Inhibition” value [1] was -1.8%.

B13: EPORab - M38 (antibody, V domains shown)
VH: QVQLVESGGGVVQPGRSLRLSCAASGFTFSSYGMHWVRQAPGKGLEWVAFIWYDGRNKNYVDSVKGRFTISRDNSKNTLYLQMNSLRAEDTAVYYCARDRGDYVFDYWGQGTLVTVSS
VL: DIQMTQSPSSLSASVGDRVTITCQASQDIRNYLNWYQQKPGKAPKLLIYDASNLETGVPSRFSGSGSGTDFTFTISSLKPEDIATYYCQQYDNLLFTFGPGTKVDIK
notes: hybridoma supernatant, ATX-GK mouse; also called hybridoma clone M38
With B13 the “% Inhibition” value [1] was 0.5%.

B14: EPORab - M19 (antibody, V domains shown)
VH: QLQLQESGPGLVKPSETLSLTCTVSGGSISSSNHYWGWIRQPPGKGLEWIGTLYYSGSTYYEPSLKSRVTISVDTSMNQFSLNLSSVTATDTAVYNCARGDRYGPFDYWGQGTLVTVSS
VL: DIVMTQSPSSLSASVGDRVTITCRASQGIRDDLGWYQQKPEKAPKRLICAASSLQSGVPSRFSGSGSGTEFTLTISSLQPEDFATYYCLQYNRYPWTFGQGTKVEIK
notes: hybridoma supernatant, ATX-GK mouse; also called hybridoma clone M19
B14 was tested, and the “% Inhibition” value [1] was 10.4%.

B15: EPORab - M87 (antibody, V domains shown)
VH: QVQLVQSGAEVKKPGASMKVSCKASGYTFTQNHISWVRQAPGQGLEWMGWISAYSGNTNYAWKFQGRVTMTTDTSTNTAYMELRSLRSDDTAVYYCARDRGNWNDFAYWGRGTLVTVSS
VL: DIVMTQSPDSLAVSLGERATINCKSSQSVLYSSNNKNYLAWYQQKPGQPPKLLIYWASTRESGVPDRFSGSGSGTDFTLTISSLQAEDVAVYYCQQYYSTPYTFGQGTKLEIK
notes: hybridoma supernatant, ATX-GK mouse; also called hybridoma clone M87
In the case of B15, the “% Inhibition” value [1] is reported as 11.5%.

B16: EPORab - M41 (antibody, V domains shown)
VH: QVQLVESGGGLVQPGRSLRLSCAASGFTFDDYAIHWVRQAPGKGLEWVSGISYNSENIGYADSVKGRFTISRDNAKNSLYLQMNSLRSEDTALYYCAKDMFLTWFSSFDYWGQGTLVTVSS
VL: ETKLTQSPGTLSLSPGERTTLSCRASQSISNNYLAWYQQKPGQAPRLLIYRASTRATGIPDRFSGSGSGTDFTLTIRRLEPEDFAVYYCQRYGRSPLTFGGGTKVEIK
notes: hybridoma supernatant, ATX-GK mouse; also called hybridoma clone M41
B16 was tested, and the “% Inhibition” value [1] was 18.7%.

B17: hybridoma clone M41 (antibody, V domains shown)
VH: QVQLVESGGGLVQPGRSLRLSCAASGFTFDDYAIHWVRQAPGKGLEWVSGISYNSENIGYADSVKGRFTISRDNAKNSLYLQMNSLRSEDTALYYCAKDMFLTWFSSFDYWGQGTLVTVSS
VL: ETKLTQSPGTLSLSPGERTTLSCRASQSISNNYLAWYQQKPGQAPRLLIYRASTRATGIPDRFSGSGSGTDFTLTIRRLEPEDFAVYYCQRYGRSPLTFGGGTKVEIK
notes: Hybridoma from ATX-GK mice; tested as supernatant (BLI) and purified (cell staining, Stat5 assay); also called EPORab - M41
B17: no binding [2].

— patent US20250129170A1 (IMMUNEDGE, published 2025)
